The source of these data is PMC7661517.

The target in the test is hen egg white lysozyme (chicken) (UniProt P00698). Nature of the test: SPR; lysozyme immobilised on a CM5 chip by amine coupling (200 RU); Affitins injected at 15.6-500 nM; 25 °C; HBSEP pH 7.4 (10 mM Hepes, 150 mM NaCl, 2 mM EDTA, 0.05% P20); association 2 min, dissociation 7 min; apparent. (In general: In SPR one partner is held on a chip, and binding of the other changes the refractive index at the surface.)
UniProt P00698, sequence (P00698 19-147): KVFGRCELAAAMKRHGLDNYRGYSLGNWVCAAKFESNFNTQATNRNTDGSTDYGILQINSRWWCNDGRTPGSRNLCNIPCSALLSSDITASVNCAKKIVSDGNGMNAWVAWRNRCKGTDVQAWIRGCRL

Take “Affitin H4 mutant M3 (L54I-L55V-L58I) (designed binder)”: the Kd is 7.5 nM.

For the substance “Affitin H4 mutant M2 (L31I-F32W) (designed binder)”, the Kd was determined as 440 nM.

Take “Affitin H4 mutant M1 (F6W-F7I) (designed binder)”: the Kd came to 3.98 nM.
